Data as given in patent US8106168B2, “Metalloproteinase binding proteins” (Dyax Corp., priority 2005, dated 2012).

Biological target: MMP-14 (Homo sapiens, UniProt P50281)
Assay: Selection and phage ELISA screening of anti-MMP-14 Fabs
Type: binding
Conditions: Fab from FAB310 phage display library
Description: Strategy I: A 100-fold excess of the FAB310 library (e.g., an amount of the library that should contain 100 copies of each library member) was depleted of streptavidin-binding antibodies by incubating the library with 200 μL of streptavidin beads for 1 hour at room temperature (RT) with rotation. 500 nM of biotinylated MMP-14 was coupled to streptavidin beads by incubation with 100 μL of streptavidin beads. The MMP-14 beads were then incubated with the streptavidin-depleted library for 1 hour at RT with rotation. The beads were then rinsed three times with 2% MTRIS/0.1% Tween, transferred to a fresh tube and washed an additional three times with 2% MTRIS/0.1% Tween, and transferred to a fresh tube and washed a final time with Round 1 TRIS buffer (50 mM TRIS; 50 mM CaCl2; 150 mM NaCl, pH 7.5).
MMP-14 binding antibodies were eluted from the beads by re-suspension in 1 mL 2% MTRIS containing 2.5 μM TIMP-2 and incubation for 1 hour at RT with rotation. The beads were then washed three times with 2% MTRIS/0.1% Tween, transferred to a fresh tube and washed three times with TRIS/0.1% Tween, and transferred to a fresh tube and washed a final time with TRIS. 1 mL output was used for infection of 9 mL TG1 bacteria (grown to OD600=0.5). The beads were further eluted by suspension in 1 mL 100 mM TEA for 10 minutes. The supernatant was neutralized with 500 μl TRIS/HCl pH 7.5. 1 mL of the second elution was used for infection of 9 mL TG1 bacteria (grown to OD600=0.5).
Two additional rounds of selection were carried out under the same conditions as the first round, except that the streptavidin beads were loaded with 100 nM biotinylated MMP-14 and the number of washes were doubled (6 times with 2% MTRIS/0.1% Tween, 6 times with TRIS/0.1% Tween and 2 times with TRIS), and Round 2/3 Tris buffer (50 mM TRIS; 5 mM CaCl2; 150 mM NaCl pH=7.5) was used for incubation and wash.
TIMP-2 was coupled to carboxylic beads, then complexed with a combination of biotinylated MMP-14 (500 nM each). The complexed beads were incubated with a 100 fold excess of FAB310 library that had been previously depleted by incubation with streptavidin beads and carboxylic beads. Elution/washing was carried out as for Strategy I.
Two additional rounds of selection were carried out, essentially as described for Strategy I, except that only 100 nM of each of MMP-14 were used in the bead complexes.
384-well plates were coated with biotinylated BSA (2 μg/ml in 50 mM TRIS; 5 mM CaCl2; 150 mM NaCl, pH 7.5), then washed 3 times with 50 mM TRIS; 5 mM CaCl2; 150 mM NaCl, pH 7.5; 0.1% Tween. Streptavidin was captured on the coated plates by incubation with 10 μg/mL streptavidin in 50 mM TRIS; 5 mM CaCl2; 150 mM NaCl pH 7.5; 0.5% Gelatin, followed by a wash with 50 mM TRIS; 5 mM CaCl2; 150 mM NaCl pH=7.5; 0.1% Tween. On the day the assay was to be performed, biotinylated MMP-14 (1 μg/ml) was captured in 50 mM TRIS; 5 mM CaCl2; 150 mM NaCl, pH 7.5.
95 clones were picked from each of Round 2 and Round 3 of each selection strategy, producing 12 masterplates. ELISA was run on the MiniTrak-5 deck according to SOP.

Molecule	bind to human MMP-14
M0035-F02: Fab that binds human MMP-14; DNA LV SEQ ID NO: 28, HV SEQ ID NO: 29 (antibody, V domains shown, Synthetically generated oligonucleotide) VH: EVQLLESGGGLVQPGGSLRLSCAASGFTFSFYRMEWVRQAPGKGLEWVSSIVPSGGFTRYADSVKGRFTISRDNSKNTLYLQMNSLRAEDTAVYYCARFHVLRYFDWFGNTQDTDAFDIWGQGTLVTVSS VL: QDIQMTQSPATLSLSPGERATLSCRASQSVSNYLAWYQQKPGQAPRLLIYDASNRATGIPARFSGSGSGTDFTLTISSLEPEDFAVYYCQQRSNWPLTFGGGTKVEIK	bind to human MMP-14
M0038-D06: Fab that binds human MMP-14; DNA LV SEQ ID NO: 54, HV SEQ ID NO: 55 (antibody, V domains shown, Synthetically generated oligonucleotide) VL: QDIQMTQSPATLSLSPGERATLSCRASQSVSSYLAWYQQKPGQAPRLLIYDASNRATGIPARFSGSGSGTDFTLTISSLEPEDFAVYYCQQRSNWPLTFGQGTRLEIK VH: EVQLLESGGGLVQPGGSLRLSCAASGFTFSWYYMGWVRQAPGKGLEWVSYIGSSGGMTGYADSVKGRFTISRDNSKNTLYLQMNSLRAEDTATYYCAMVGFLPTVDYWGQGTLVTVSS	bind to human MMP-14
M0030-A04: Fab that binds human MMP-14; DNA LV SEQ ID NO: 6, HV SEQ ID NO: 7 (antibody, V domains shown, Synthetically generated oligonucleotide) VH: EVQLLESGGGLVQPGGSLRLSCAASGFTFSVYEMNWVRQAPGKGLEWVSSIYSSGGRTDYADSVKGRFTISRDNSKNTLYLQMNSLRAEDTAVYYCAREAHYYDSSGPPDYWGQGTLVTVSS VL: QSELTQPPSASGTPGQRVTISCSGSSSNIGINFVTWYQQLPGTAPKLLIYTNNQRPSGVPDRFSSSKSGASASLAISGLQSEDEAAYYCAAWDDNLNGPVFGGGTKLTVL	bind to human MMP-14
M0037-H09: Fab that binds human MMP-14; DNA LV SEQ ID NO: 46, HV SEQ ID NO: 47 (antibody, V domains shown, Synthetically generated oligonucleotide) VL: QDIQMTQSPLSLPVTPGEPASISCRSSQSLLHGNGNNYLDWYLQKPGQSPQLLIYLGSNRASGVPDRFSGSGSGTDFTLKISSVEAEDVGVYYCMQGLQTPHTFGQGTQLEIK VH: EVQLLESGGGLVQPGGSLRLSCAASGFTFSRYWMDWVRQAPGKGLEWVSSIRSSGGMTGYADSVKGRFTISRDNSKNTLYLQMNSLRAEDTAVYYCARHRTGRGAFDIWGQGTTVTVSS	bind to human MMP-14
M0038-E05: Fab that binds human MMP-14; DNA LV SEQ ID NO: 56, HV SEQ ID NO: 57 (antibody, V domains shown, Synthetically generated oligonucleotide) VL: QDIQMTQSPSSVSASVGDRVTITCRASQHISNWLAWYQQKPGEAPKLLISAASSLQSGVPSRFSGSGSGTDFTLTISSLQPEDFATYYCQQSYSTPLTFGGGTKVEIK VH: EVQLLESGGGLVQPGGSLRLSCAASGFTFSPYHMTWVRQAPGKGLEWVSSISSSGGHTEYADSVKGRFTISRDNSKNTLYLQMNSLRAEDTAVYYCATAWAGFTFNVWGQGTMVTVSS	bind to human MMP-14
M0037-C03: Fab that binds human MMP-14; DNA LV SEQ ID NO: 40, HV SEQ ID NO: 41 (antibody, V domains shown, Synthetically generated oligonucleotide) VL: QDIQMTQSPSSVSASVGDRVTITCRASQGISSWLAWYQQKPGKAPKLLIYAASSLQSGVPSRFSGSGSGTDFTLTISSLQPEDFATYYCQQANSFPFVTFGQGTKLEIK VH: EVQLLESGGGLVQPGGSLRLSCAASGFTFSMYLMIWVRQAPGKGLEWVSVISSSGGQTKYADSVKGRFTISRDNSKNTLYLQMNSLRAEDTAVYYCARTDLTGYSAGAFDIWGQGTMVTVSS	bind to human MMP-14
M0037-A08: Fab that binds human MMP-14; DNA LV SEQ ID NO: 36, HV SEQ ID NO: 37 (antibody, V domains shown, Synthetically generated oligonucleotide) VL: QDIQMTQSPSSVSASVGDRVTITCRASQGVSSYLAWYQQKPGKAPKLLIYGASTLQNGVPSRFSGSGSGTDFTLTISSLQPEDFATYHCQQVHSFPPTFGQGTKVEIK VH: EVQLLESGGGLVQPGGSLRLSCAASGFTFSHYMMMWVRQAPGKGLEWVSGISSSGGRTGYADSVKGRFTISRDNSKNTLYLQMNSLRAEDTAVYYCASFGNSGSYSWRAFDIWGQGTTVTVSS	bind to human MMP-14
M0038-B06: Fab that binds human MMP-14; DNA LV SEQ ID NO: 48, HV SEQ ID NO: 49 (antibody, V domains shown, Synthetically generated oligonucleotide) VL: QDIQMTQSPSSLSASVGDRVTITCRASQSISSYLNWYQQKPGKAPKLLIYAASSLQSGVPSRFRGSGSGTDFSLTISSLQPEDFATYYCQQTYSGLPTFGGGTVVEIK VH: EVQLLESGGGLVQPGGSLRLSCAASGFTFSSYVMGWVRQAPGKGLEWVSVISPSGGWTTYADSVKGRFTISRDNSKNTLYLQMNSLRAEDTATYYCASRGVVTNLDYWGQGTLVTVSS	bind to human MMP-14

Results, then the molecule that gave them:

bind to human MMP-14	Molecule
bind to human MMP-14	M0036-F02: Fab that binds human MMP-14; DNA LV SEQ ID NO: 32, HV SEQ ID NO: 33 (antibody, V domains shown, Synthetically generated oligonucleotide) VL: QYELTQPPSLSVSPGQTASITCSGEKLGEKFASWYQRRPGQSPLLIIYQDNKRPSGIPERFSGSNSGNTAALTITGTQAMDDADYYCQAWESTTAVFGGGTKLTVL VH: EVQLLESGGGLVQPGGSLRLSCAASGFTFSRYTMGWVRQAPGKGLEWVSRIYSSGGNTVYADSVKGRFTISRDNSKNTLYLQMNSLRAEDTATYYCARTRRDGYNPFDYWGQGTLVTVSS
bind to human MMP-14	M0037-B10: Fab that binds human MMP-14; DNA LV SEQ ID NO: 38, HV SEQ ID NO: 39 (antibody, V domains shown) VH: EVQLLESGGGLVQPGGSLRLSCAASGFTFSVYYMGWVRQAPGKGLEWVSYIGSSGGWTEYADSVKGRFTISRDNSKNTLYLQMNSLRAEDTAVYYCARDLSAVAGLGGAFDIWGQGTMVTVSS VL: QDIQMTQSPSSLSASVGDRVAITCRASQSIDTYLNWYQQKPGKAPKLLIYAASKLEDGVPSRFSGSGTGTDFTLTIRSLQPEDFASYFCQQSYSSPGITFGPGTKVEIK
bind to human MMP-14	M0036-D02: Fab that binds human MMP-14; DNA LV SEQ ID NO: 30, HV SEQ ID NO: 31 (antibody, V domains shown, Synthetically generated oligonucleotide) VL: QDIQMTQSPATLSLSPGEKATLSCRASQTVYNYLAWYQQKPGQAPRLLIYDAFNRATGIPARFSGSGSGTDFTLTISSLEPEDFAVYYCQQRGNWPRTFGQGTKVEIK VH: EVQLLESGGGLVQPGGSLRLSCAASGFTFSFYKMTWVRQAPGKGLEWVSGIYPSGGRTVYADSVKGRFTISRDNSKNTLYLQMNSLRAEDTAMYYCARGPHYYDSPGAFDIWGQGTMVTVSS
bind to human MMP-14	M0038-C05: Fab that binds human MMP-14; DNA LV SEQ ID NO: 50, HV SEQ ID NO: 51 (antibody, V domains shown, Synthetically generated oligonucleotide) VL: QDIQMTQSPSSLSASVGDRVTITCRASQSISSYLNWYQQKPGKAPKLLIYAASSLQSGVPSRFSGSGSGTDFTLTISRLEPEDFAVYYCQQYGSSPTFGQGTKVEIK VH: EVQLLESGGGLVQPGGSLRLSCAASGFTFSSYIMVWVRQAPGKGLEWVSVIYPSGGPTYYADSVKGRFTISRDNSKNTLYLQMNSLRAEDTAVYYCARDPRLERFYFDYWGQGTLVTVSS
